Laboratory results as given in US20260176358A1 (JIANGSU HENGRUI PHARMACEUTICALS, published 2026).

How the values were obtained:
hTSLP = hTSLP (human, UniProt Q969D9 29-159); test: method of Test Example 4 of WO2021139758
hIL5 = hIL5 (human, UniProt P05113 20-134); test: method of Test Example 4 of WO2021139758

Binder | EC50 (hTSLP) | EC50 (hIL5)
HJ-3 (bispecific antibody) chain 1: not shown chain 2: DIQMTQSPSSVSASVGDRVTITCRASQDIANYLSWYQQKPGKSPKLLIYGTSNLEVGVPSRFSGSRSGTDFTLTISSLQPEDFATYYCLQDKEFPRTFGGGTKVEIKGGGGSSGAPRFLTRPLAFVVSVGKDATLSSQIVGNPTPQVSWEKDKQPVTAGARFRLAQDGDLYRLKILDLQLSDSGQYVSRARNAIGEAFACLGLQVDAEA chain 3: EVQLVQSGAEVKKPGSSVKVSCKASGYTFSNYLIEWVRQAPGQGLEWIGVIDPGVGDTNYNENFKGRATLTADKSTSTAYIELSSLRSEDTAVYYCAREDNTGTAFDYWGQGTTVTVSSASTKGPSVFPLAPSSKSTSGGTAALGCLVKDYFPEPVTVSWNSGALTSGVHTFPAVLQSSGLYSLSSVVTVPSSSLGTQTYICNVNHKPSNTKVDKKVEPKSCDKTHTCPPCPAPEAAGGPSVFLFPPKPKDTLMISRTPEVTCVVVDVSHEDPEVKFNWYVDGVEVHNAKTKPREEQYNSTYRVVSVLTVLHQDWLNGKEYKCKVSNKALPAPIEKTISKAKGQPREPQVCTLPPSREEMTKNQVSLSCAVKGFYPSDIAVEWESNGQPENNYKTTPPVLDSDGSFFLVSKLTVDKSRWQQGNVFSCSVMHEALHNHYTQKSLSLSPGKDYKDDDDK chain 4: SIVMTQTPLSLSVTPGQPASISCKASQSVSSDVTWYLQKPGQSPQLLIYYVSEHYTGVPDRFSGSGYGTDFTLKISRVEAEDVGVYYCQQHHRFPLTFGQGTKLEIKRTVAAPSVFIFPPSDEQLKSGTASVVCLLNNFYPREAKVQWKVDNALQSGNSQESVTEQDSKDSTYSLSSTLTLSKADYEKHKVYACEVTHQGLSSPVTKSFNRGEC | 3.23 nM | 17.4 nM
HJ-8 (bispecific antibody) chain 1: not shown chain 2: DIQMTQSPSSVSASVGDRVTITCRASQDIANYLSWYQQKPGKSPKLLIYGTSNLEVGVPSRFSGSRSGTDFTLTISSLQPEDFATYYCLQDKEFPRTFGGGTKVEIKRTVASSGAPRFLTRPKASVVSVGKDATLSSQIVGNPFPQVSWEKDKQPVTAGVRFRLAQDGDLYRLKILDLQLSDSGQYVSRARNAHGEAFACLGLQVDAEA chain 3: EVQLVQSGAEVKKPGSSVKVSCKASGYTFSNYLIEWVRQAPGQGLEWIGVIDPGVGDTNYNENFKGRATLTADKSTSTAYIELSSLRSEDTAVYYCAREDNTGTAFDYWGQGTTVTVSSASTKGPSVFPLAPSSKSTSGGTAALGCLVKDYFPEPVTVSWNSGALTSGVHTFPAVLQSSGLYSLSSVVTVPSSSLGTQTYICNVNHKPSNTKVDKKVEPKSCDKTHTCPPCPAPEAAGGPSVFLFPPKPKDTLMISRTPEVTCVVVDVSHEDPEVKFNWYVDGVEVHNAKTKPREEQYNSTYRVVSVLTVLHQDWLNGKEYKCKVSNKALPAPIEKTISKAKGQPREPQVCTLPPSREEMTKNQVSLSCAVKGFYPSDIAVEWESNGQPENNYKTTPPVLDSDGSFFLVSKLTVDKSRWQQGNVFSCSVMHEALHNHYTQKSLSLSPGK chain 4: SIVMTQTPLSLSVTPGQPASISCKASQSVSSDVTWYLQKPGQSPQLLIYYVSEHYTGVPDRFSGSGYGTDFTLKISRVEAEDVGVYYCQQHHRFPLTFGQGTKLEIKRTVAAPSVFIFPPSDEQLKSGTASVVCLLNNFYPREAKVQWKVDNALQSGNSQESVTEQDSKDSTYSLSSTLTLSKADYEKHKVYACEVTHQGLSSPVTKSFNRGEC | 3.33 nM | 18.7 nM
HJ-10 (bispecific antibody) chain 1: not shown chain 2: DIQMTQSPSSVSASVGDRVTITCRASQDIANYLSWYQQKPGKSPKLLIYGTSNLEVGVPSRFSGSRSGTDFTLTISSLQPEDFATYYCLQDKEFPRTFGGGTKVEIKRTVASSGAPRFLTRPKASVVSVGKDATLSCQIVGNPFPQVSWEKDKQPVTAGVRFRLAQDGDLYRLKILDLQLSDSGQYVCRARNAHGEAFACLGLQVDAEA chain 3: EVQLVQSGAEVKKPGSSVKVSCKASGYTFSNYLIEWVRQAPGQGLEWIGVIDPGVGDTNYNENFKGRATLTADKSTSTAYIELSSLRSEDTAVYYCAREDNTGTAFDYWGQGTTVTVSSASTKGPSVFPLAPSSKSTSGGTAALGCLVKDYFPEPVTVSWNSGALTSGVHTFPAVLQSSGLYSLSSVVTVPSSSLGTQTYICNVNHKPSNTKVDKKVEPKSCDKTHTCPPCPAPEAAGGPSVFLFPPKPKDTLMISRTPEVTCVVVDVSHEDPEVKFNWYVDGVEVHNAKTKPREEQYNSTYRVVSVLTVLHQDWLNGKEYKCKVSNKALPAPIEKTISKAKGQPREPQVCTLPPSREEMTKNQVSLSCAVKGFYPSDIAVEWESNGQPENNYKTTPPVLDSDGSFFLVSKLTVDKSRWQQGNVFSCSVMHEALHNHYTQKSLSLSPGK chain 4: SIVMTQTPLSLSVTPGQPASISCKASQSVSSDVTWYLQKPGQSPQLLIYYVSEHYTGVPDRFSGSGYGTDFTLKISRVEAEDVGVYYCQQHHRFPLTFGQGTKLEIKRTVAAPSVFIFPPSDEQLKSGTASVVCLLNNFYPREAKVQWKVDNALQSGNSQESVTEQDSKDSTYSLSSTLTLSKADYEKHKVYACEVTHQGLSSPVTKSFNRGEC | 3.17 nM | 20.8 nM
HJ-9 (bispecific antibody) chain 1: not shown chain 2: DIQMTQSPSSVSASVGDRVTITCRASQDIANYLSWYQQKPGKSPKLLIYGTSNLEVGVPSRFSGSRSGTDFTLTISSLQPEDFATYYCLQDKEFPRTFGGGTKVEIKRTVASSGAPRFLTCPKASVVSVGKDATLSSQIVGNPFPQVSWEKDKQPVTAGVRFRLAQDGDLYRLKILDLQLSDSGQYVSRARNAHGEAFACLGLQVDAEA chain 3: EVQLVQSGAEVKKPGSSVKVSCKASGYTFSNYLIEWVRQAPGQGLEWIGVIDPGVGDTNYNENFKGRATLTADKSTSTAYIELSSLRSEDTAVYYCAREDNTGTAFDYWGQGTTVTVSSASTKGPSVFPLAPSSKSTSGGTAALGCLVKDYFPEPVTVSWNSGALTSGVHTFPAVLQSSGLYSLSSVVTVPSSSLGTQTYICNVNHKPSNTKVDKKVEPKSCDKTHTCPPCPAPEAAGGPSVFLFPPKPKDTLMISRTPEVTCVVVDVSHEDPEVKFNWYVDGVEVHNAKTKPREEQYNSTYRVVSVLTVLHQDWLNGKEYKCKVSNKALPAPIEKTISKAKGQPREPQVCTLPPSREEMTKNQVSLSCAVKGFYPSDIAVEWESNGQPENNYKTTPPVLDSDGSFFLVSKLTVDKSRWQQGNVFSCSVMHEALHNHYTQKSLSLSPGK chain 4: SIVMTQTPLSLSVTPGQPASISCKASQSVSSDVTWYLQKPGQSPQLLIYYVSEHYTGVPDRFSGSGYGTDFTLKISRVEAEDVGVYYCQQHHRFPLTFGQGTKLEIKRTVAAPSVFIFPPSDEQLKSGTASVVCLLNNFYPREAKVQWKVDNALQSGNSQESVTEQDSKDSTYSLSSTLTLSKADYEKHKVYACEVTHQGLSSPVTKSFNRGEC | 3.18 nM | 10.9 nM
HJ-6 (bispecific antibody) chain 1: not shown chain 2: DIQMTQSPSSVSASVGDRVTITCRASQDIANYLSWYQQKPGKSPKLLIYGTSNLEVGVPSRFSGSRSGTDFTLTISSLQPEDFATYYCLQDKEFPRTFGGGTKVEIKGGGGSSGAPRFLTCPKASVVSVGKDATLSSQIVGNPFPQVSWEKDKQPVTAGVRFRLAQDGDLYRLKILDLQLSDSGQYVSRARNAHGEAFACLGLQVDAEA chain 3: EVQLVQSGAEVKKPGSSVKVSCKASGYTFSNYLIEWVRQAPGQGLEWIGVIDPGVGDTNYNENFKGRATLTADKSTSTAYIELSSLRSEDTAVYYCAREDNTGTAFDYWGQGTTVTVSSASTKGPSVFPLAPSSKSTSGGTAALGCLVKDYFPEPVTVSWNSGALTSGVHTFPAVLQSSGLYSLSSVVTVPSSSLGTQTYICNVNHKPSNTKVDKKVEPKSCDKTHTCPPCPAPEAAGGPSVFLFPPKPKDTLMISRTPEVTCVVVDVSHEDPEVKFNWYVDGVEVHNAKTKPREEQYNSTYRVVSVLTVLHQDWLNGKEYKCKVSNKALPAPIEKTISKAKGQPREPQVCTLPPSREEMTKNQVSLSCAVKGFYPSDIAVEWESNGQPENNYKTTPPVLDSDGSFFLVSKLTVDKSRWQQGNVFSCSVMHEALHNHYTQKSLSLSPGK chain 4: SIVMTQTPLSLSVTPGQPASISCKASQSVSSDVTWYLQKPGQSPQLLIYYVSEHYTGVPDRFSGSGYGTDFTLKISRVEAEDVGVYYCQQHHRFPLTFGQGTKLEIKRTVAAPSVFIFPPSDEQLKSGTASVVCLLNNFYPREAKVQWKVDNALQSGNSQESVTEQDSKDSTYSLSSTLTLSKADYEKHKVYACEVTHQGLSSPVTKSFNRGEC | 2.88 nM | 37 nM

The remaining lines, values ahead:

EC50 (hTSLP) | EC50 (hIL5) | Binder
2.18 nM | 17.7 nM | HJ-7 (bispecific antibody) chain 1: not shown chain 2: DIQMTQSPSSVSASVGDRVTITCRASQDIANYLSWYQQKPGKSPKLLIYGTSNLEVGVPSRFSGSRSGTDFTLTISSLQPEDFATYYCLQDKEFPRTFGGGTKVEIKGGGGSSGAPRFLTRPKASVVSVGKDATLSCQIVGNPFPQVSWEKDKQPVTAGVRFRLAQDGDLYRLKILDLQLSDSGQYVCRARNAHGEAFACLGLQVDAEA chain 3: EVQLVQSGAEVKKPGSSVKVSCKASGYTFSNYLIEWVRQAPGQGLEWIGVIDPGVGDTNYNENFKGRATLTADKSTSTAYIELSSLRSEDTAVYYCAREDNTGTAFDYWGQGTTVTVSSASTKGPSVFPLAPSSKSTSGGTAALGCLVKDYFPEPVTVSWNSGALTSGVHTFPAVLQSSGLYSLSSVVTVPSSSLGTQTYICNVNHKPSNTKVDKKVEPKSCDKTHTCPPCPAPEAAGGPSVFLFPPKPKDTLMISRTPEVTCVVVDVSHEDPEVKFNWYVDGVEVHNAKTKPREEQYNSTYRVVSVLTVLHQDWLNGKEYKCKVSNKALPAPIEKTISKAKGQPREPQVCTLPPSREEMTKNQVSLSCAVKGFYPSDIAVEWESNGQPENNYKTTPPVLDSDGSFFLVSKLTVDKSRWQQGNVFSCSVMHEALHNHYTQKSLSLSPGK chain 4: SIVMTQTPLSLSVTPGQPASISCKASQSVSSDVTWYLQKPGQSPQLLIYYVSEHYTGVPDRFSGSGYGTDFTLKISRVEAEDVGVYYCQQHHRFPLTFGQGTKLEIKRTVAAPSVFIFPPSDEQLKSGTASVVCLLNNFYPREAKVQWKVDNALQSGNSQESVTEQDSKDSTYSLSSTLTLSKADYEKHKVYACEVTHQGLSSPVTKSFNRGEC
2.64 nM | 16 nM | HJ-5 (bispecific antibody) chain 1: not shown chain 2: DIQMTQSPSSVSASVGDRVTITCRASQDIANYLSWYQQKPGKSPKLLIYGTSNLEVGVPSRFSGSRSGTDFTLTISSLQPEDFATYYCLQDKEFPRTFGGGTKVEIKGGGGSSGAPRFLTRPKASVVSVGKDATLSSQIVGNPFPQVSWEKDKQPVTAGVRFRLAQDGDLYRLKILDLQLSDSGQYVSRARNAHGEAFACLGLQVDAEA chain 3: EVQLVQSGAEVKKPGSSVKVSCKASGYTFSNYLIEWVRQAPGQGLEWIGVIDPGVGDTNYNENFKGRATLTADKSTSTAYIELSSLRSEDTAVYYCAREDNTGTAFDYWGQGTTVTVSSASTKGPSVFPLAPSSKSTSGGTAALGCLVKDYFPEPVTVSWNSGALTSGVHTFPAVLQSSGLYSLSSVVTVPSSSLGTQTYICNVNHKPSNTKVDKKVEPKSCDKTHTCPPCPAPEAAGGPSVFLFPPKPKDTLMISRTPEVTCVVVDVSHEDPEVKFNWYVDGVEVHNAKTKPREEQYNSTYRVVSVLTVLHQDWLNGKEYKCKVSNKALPAPIEKTISKAKGQPREPQVCTLPPSREEMTKNQVSLSCAVKGFYPSDIAVEWESNGQPENNYKTTPPVLDSDGSFFLVSKLTVDKSRWQQGNVFSCSVMHEALHNHYTQKSLSLSPGK chain 4: SIVMTQTPLSLSVTPGQPASISCKASQSVSSDVTWYLQKPGQSPQLLIYYVSEHYTGVPDRFSGSGYGTDFTLKISRVEAEDVGVYYCQQHHRFPLTFGQGTKLEIKRTVAAPSVFIFPPSDEQLKSGTASVVCLLNNFYPREAKVQWKVDNALQSGNSQESVTEQDSKDSTYSLSSTLTLSKADYEKHKVYACEVTHQGLSSPVTKSFNRGEC
